Test results: patent publication US20250027068

B1: PRT-132 (protein)
chain: MRNATEAYAKEVPKQITSVWTKGVTPPTPEQFRYNNEDVIHAPYLAHQGWYDITKAFDGKDNLLCGAATAGNMLHWWFDQNKTEIEAYLSKHPEKQKIIFNNQELFDLKAAIDTKDSQTNSQLFNYFRDKAFPNLSARQLGVMPDLVLDMFINGYYLNVFKTQSTDVNRPYQDKDKRGGIFDAVFTRGDQTTLLTARHDLKNKTLNDISTIIKQELTEGRALALSHTYANVSISHVINLWGADFNAEGNLEAIYVTDSDANASIGMKKYFVGINAHGHVAISAKKIEGENIGAQVLGLFTLSSGKDIWQKLS
B2: PRT-133 (protein)
chain: MRNATEAYAKEVPHQITSVWTKGVTPLTPEQFRYNNEDVIHAPYLAHQGWYDITKTFDGKDNLLCGAATAGNMLHWWFDQNKTEIEAYLSKHPEKQKIIFNNQELFDLKAAIDTKDSQTNSQLFNYFRDKAFPNLSARQLGVMPDLVLDMFINGYYLNVFKTQSTDVNRPYQDKDKRGGIFDAVFTRGDQTTLLTARHDLKNKGLNDISTIIKQELTEGRALALSHTYANVSISHVINLWGADFNAEGNLEAIYVTDSDANASIGMKKYFVGINAHGHVAISAKKIEGENIGAQVLGLFTLSSGKDIWQKLS
B3: PRT-134 (protein)
chain: MRNATEAYAKEVPHQITSVWTKGVTPLTPEQFRYNNEDVIHAPYLAHQGWYDITKAFDGKDNLLCGAATAGNMLHWWFDQNKTEIEAYLSKHPEKQKIIFNNQELFDLKAAIDTKDSQTNSQLFNYFRDKAFPNLSARQLGVMPDLVLDMFINGYYLNVFKTQSTDVNRPYQDKDKRGGIFDAVFTRGDQTTLLTARHDLKNKGLNDISTLIKQELTEGRALALSHTYANVSISHVINLWGADFNAEGNLEAIYVTDSDANASIGMKKYFVGINAHGHVAISAKKIEGENIGAQVLGLFTLSSGKDIWQKLS
B4: PRT-135 (protein)
chain: MRNATEAYAKEVPHQITSVWTKGVTPLTPEQFRYNNEDVIHAPYLAHQGWYDITKAFDGKDNLLCGAATAGNMLHWWFDQNKTEIEAYLSKHPEKQKIIFNNQELFDLKAAIDTKDSQTNSQLFNYFRDKAFPNLSARQLGVMPDLVLDMFINGYYLNVFKTQSTDVNRPYQDKDKRGGIFDAVFTRGDQTTLLTARHDLKNKGLNDISTIIKQELTEGKALALSHTYANVSISHVINLWGADFNAEGNLEAIYVTDSDANASIGMKKYFVGINAHGHVAISAKKIEGENIGAQVLGLFTLSSGKDIWQKLS
B5: PRT-136 (protein)
chain: MRNATEAYAKEVPHQITSVWTKGVTPLTPEQFRYNNEDVIHAPYLAHQGWYDITKAFDGKDNLLCGAATAGNMLHWWFDQNKTEIEAYLSKHPEKQKIIFNNQELFDLKAAIDTKDSQTNSQLFNYFRDKAFPNLSARQLGVMPDLVLDMFINGYYLNVFKTQSTDVNRPYQDKDKRGGIFDAVFTRGDQTTLLTARHDLKNKGLNDISTIIKQELTEGRALALSHTYANVSISHVINLWGADFNAEGNLEAIYVTDSDANASIGMKKYFVGVNAHGHVAISAKKIEGENIGAQVLGLFTLSSGKDIWQKLS
B6: PRT-137 (protein)
chain: MRNATEAYAKEVPHQITSVWTKGVTPLTPEQFRYNNEDVIHAPYLAHQGWYDITKAFDGKDNLLCGAATAGNMLHWWFDQNKTEIEAYLSKHPEKQKIIFNNQELFDLKAAIDTKDSQTNSQLFNYFRDKAFPNLSARQLGVMPDLVLDMFINGYYLNVFKTQSTDVNRPYQDKDKRGGIFDAVFTRGDQTTLLTARHDLKNKGLNDISTIIKQELTEGRALALSHTYANVSISHVINLWGADFNAEGNLEAIYVTDSDANASIGMKKYFVGINAHGKVAISAKKIEGENIGAQVLGLFTLSSGKDIWQKLS
B7: PRT-138 (protein)
chain: MRNATEAYAKEVPHQITSVWTKGVTPPTPEQFRYNNEDVIHAPYLAHQGWYDITKAFDGKDNLLCGAATAGNMLHWWFDQNKTEIEAYLSKHPEKQKIIFNNQELFDLKAAIDTKDSQTNSQLFNYFRDKAFPNLSARQLGVMPDLVLDMFINGYYLNVFKTQSTDVNRPYQDKDKRGGIFDAVFTRGDQTTLLTARHDLKNKGLNDISTIIKQELTEGRALALSHTYANVSISHVINLWGADFNAEGNLEAIYVTDSDANASIGMKKYFVGINAHGHVAISAKKIEGENIGAQVLGLFTLSSGKDIWQKLS
B8: PRT-139 (protein)
chain: MRNATEAYAKEVPHQITSVWTKGVTPLTPEQFRYNNEDVIHAPYLANQGWYDITKAFDGKDNLLCGAATAGNMLHWWFDQNKTEIEAYLSKHPEKQKIIFNNQELFDLKAAIDTKDSQTNSQLFNYFRDKAFPNLSARQLGVMPDLVLDMFINGYYLNVFKTQSTDVNRPYQDKDKRGGIFDAVFTRGDQTTLLTARHDLKNKGLNDISTIIKQELTEGRALALSHTYANVSISHVINLWGADFNAEGNLEAIYVTDSDANASIGMKKYFVGINAHGHVAISAKKIEGENIGAQVLGLFTLSSGKDIWQKLS
B9: PRT-12 (protein)
chain: MANQEIRYSEVTPYHVTSVWTKGVTPPADFTQGEDVFHAPYKANQGWYDITKTFNGKDDLLCGAATAGNMLHWWFDQNKDQIERYLKEHPEKQKINFNGEQMFDVKEAIDTKDSQTDSKLFEYFKEKAFPYLSTKHLGVFPDHVIDMFINGYRLSLTNHGPTPVKRGSKDPRGGFFDAVFTRGDQSKLLTSRHDFKEKTLNEISDLIKKELTEGKALGLSHTYANVRINHVINLWGADFDSNGNLEAIYVTDSDSNASIGMKKYFVGVNSAGKVAISAKEIKEDNIGAQVLGLFTLSTGQDIWEQTN
B10: PRT-140 (protein)
chain: MRNATEAYAKEVPHQITSVWTKGVTPLTPEQFRYNNEDVIHAPYLAHQGWYDITKAFNGKDNLLCGAATAGNMLHWWFDQNKTEIEAYLSKHPEKQKIIFNNQELFDLKAAIDTKDSQTNSQLFNYFRDKAFPNLSARQLGVMPDLVLDMFINGYYLNVFKTQSTDVNRPYQDKDKRGGIFDAVFTRGDQTTLLTARHDLKNKGLNDISTIIKQELTEGRALALSHTYANVSISHVINLWGADFNAEGNLEAIYVTDSDANASIGMKKYFVGINAHGHVAISAKKIEGENIGAQVLGLFTLSSGKDIWQKLS
B11: PRT-141 (protein)
chain: MRNATEAYAKEVPHQITSVWTKGVTPLTPEQFRYNNEDVIHAPYLAHQGWYDITKAFDGKDNLLCGAATAGNMLHWWFDQNKTEIEAYLSKHPEKQKIIFNNQELFDLKAAIDTKDSQTNSQLFNYFRDKAFPNLSARQLGVMPDLVLDMFINGYYLNVFKTQSTDVNRPYQDKDKRGGIFDAVFTRGDQTTLLTARHDLKNKGLNDISTIIKQELTEGRALALSHTYANVSISHVINLWGADFNAEGNLEAIYVTDSDANASIGMKKYFVGINAAGHVAISAKKIEGENIGAQVLGLFTLSSGKDIWQKLS
B12: PRT-142 (protein)
chain: MRNATEAYAKEVPHQITSVWTKGVTPLTPEQFRYNNEDVFHAPYLAHQGWYDITKAFDGKDNLLCGAATAGNMLHWWFDQNKTEIEAYLSKHPEKQKIIFNNQELFDLKAAIDTKDSQTNSQLFNYFRDKAFPNLSARQLGVMPDLVLDMFINGYYLNVFKTQSTDVNRPYQDKDKRGGIFDAVFTRGDQTTLLTARHDLKNKGLNDISTIIKQELTEGRALALSHTYANVSISHVINLWGADFNAEGNLEAIYVTDSDANASIGMKKYFVGINAHGHVAISAKKIEGENIGAQVLGLFTLSSGKDIWQKLS
B13: PRT-143 (protein)
chain: MANQEIRYSEVTPYHITSVWTKGVTPPANFTQGEDVFHAPYVANQGWYDITKTFNGKDDLLCGAATAGNMLHWWFDQNKDQIKRYLEEHPEKQKINFNGEQMFDVKEAIDTKNHQLDSKLFEYFKEKAFPYLSTKHLGVFPDHVIDMFINGYRLSLTNHGPTPVKEGSKDPRGGIFDAVFTRGDQSKLLTSRHDFKEKTLNEISQLIKQELTEGKALGLSHTYANVRINHVINLWGADFDAEGNLEAIYVTDSDSNASIGMKKYFVGVNSAGKVAISAKEIKEDNIGAQVLGLFTLSTGQDSWNQTN
B14: PRT-144 (protein)
chain: MANQEIRYSEVTPYHITSVWTKGVTPPANFTQGEDVFHAPYVANQGWYDITKTFNGKDDLLCGAATAGNMLHWWFDQNKDQIKRYLEEHPEKQKINFNGEQMFDVKEAIDTKNHQLDSKLFEYFKEKAFPYLSTKHLGVFPDHVIDMFINGYRLSLTNHGPTPVKEGSKDPRGGIFDAVFTRGDQSKLLTSRHDFKEKTLNDISQLIKQELQSGKALGLSHTYANVRINHVINLWGADFDAEGNLEAIYVTDSDSNASIGMKKYFVGKNSAGKVAISAKEIKEDNIGAQVLGLFTLSTGQDSWNQTN

What follows are proteins tested against pooled human IgG.
With B1 the Enzyme Activity Endpoint Assay (purified): Fab'2 was 697 ng/µL, the Enzyme Activity Endpoint Assay (purified): Fc was 219 ng/µL and the Enzyme Activity Endpoint Assay (purified): IgG was 0 ng/µL. The Enzyme Activity Endpoint Assay (purified): scIgG was 0 ng/µL.
For B2, the Enzyme Activity Endpoint Assay (purified): Fab'2 was 774 ng/µL, the Enzyme Activity Endpoint Assay (purified): Fc was 207 ng/µL and the Enzyme Activity Endpoint Assay (purified): IgG was 0 ng/µL. The Enzyme Activity Endpoint Assay (purified): scIgG was 12 ng/µL.
Protein B3 has an Enzyme Activity Endpoint Assay (purified): Fab'2 of 597 ng/µL, an Enzyme Activity Endpoint Assay (purified): Fc of 174 ng/µL and an Enzyme Activity Endpoint Assay (purified): IgG of 0 ng/µL. It also gave an Enzyme Activity Endpoint Assay (purified): scIgG of 0 ng/µL.
B4 was tested, and the Enzyme Activity Endpoint Assay (purified): Fab'2 was 526 ng/µL, the Enzyme Activity Endpoint Assay (purified): Fc was 140 ng/µL and the Enzyme Activity Endpoint Assay (purified): IgG was 0 ng/µL. It also gave an Enzyme Activity Endpoint Assay (purified): scIgG of 6 ng/µL.
B5 was tested, and the Enzyme Activity Endpoint Assay (purified): Fab'2 was 635 ng/µL, the Enzyme Activity Endpoint Assay (purified): Fc was 160 ng/µL and the Enzyme Activity Endpoint Assay (purified): IgG was 0 ng/µL. The Enzyme Activity Endpoint Assay (purified): scIgG was 0 ng/µL.
B6 gave an Enzyme Activity Endpoint Assay (purified): Fab'2 of 662 ng/µL, an Enzyme Activity Endpoint Assay (purified): Fc of 198 ng/µL and an Enzyme Activity Endpoint Assay (purified): IgG of 0 ng/µL. It also gave an Enzyme Activity Endpoint Assay (purified): scIgG of 0 ng/µL.
B7 showed an Enzyme Activity Endpoint Assay (purified): Fab'2 of 563 ng/µL, an Enzyme Activity Endpoint Assay (purified): Fc of 215 ng/µL and an Enzyme Activity Endpoint Assay (purified): IgG of 0 ng/µL. It also gave an Enzyme Activity Endpoint Assay (purified): scIgG of 144 ng/µL.
B8 was tested, and the Enzyme Activity Endpoint Assay (purified): Fab'2 was 733 ng/µL, the Enzyme Activity Endpoint Assay (purified): Fc was 213 ng/µL and the Enzyme Activity Endpoint Assay (purified): IgG was 0 ng/µL. The Enzyme Activity Endpoint Assay (purified): scIgG was 0 ng/µL.
B9 gave an Enzyme Activity Endpoint Assay: Fab′2 of 47 ng/µL, an Enzyme Activity Endpoint Assay: Fc of 122 ng/µL and an Enzyme Activity Endpoint Assay: IgG of 16 ng/µL. It also gave an Enzyme Activity Endpoint Assay: scIgG of 14 ng/µL.
With B10 the Enzyme Activity Endpoint Assay (purified): Fab'2 was 755 ng/µL, the Enzyme Activity Endpoint Assay (purified): Fc was 213 ng/µL and the Enzyme Activity Endpoint Assay (purified): IgG was 0 ng/µL. For the same protein, the Enzyme Activity Endpoint Assay (purified): scIgG was 0 ng/µL.
B11 gave an Enzyme Activity Endpoint Assay (purified): Fab'2 of 846 ng/µL, an Enzyme Activity Endpoint Assay (purified): Fc of 215 ng/µL and an Enzyme Activity Endpoint Assay (purified): IgG of 0 ng/µL. It also gave an Enzyme Activity Endpoint Assay (purified): scIgG of 0 ng/µL.
Protein B12 has an Enzyme Activity Endpoint Assay (purified): Fab'2 of 589 ng/µL, an Enzyme Activity Endpoint Assay (purified): Fc of 135 ng/µL and an Enzyme Activity Endpoint Assay (purified): IgG of 0 ng/µL. It also gave an Enzyme Activity Endpoint Assay (purified): scIgG of 0 ng/µL.
B13 showed an Enzyme Activity Endpoint Assay (purified): Fab'2 of 576 ng/µL, an Enzyme Activity Endpoint Assay (purified): Fc of 170 ng/µL and an Enzyme Activity Endpoint Assay (purified): IgG of 0 ng/µL. For the same protein, the Enzyme Activity Endpoint Assay (purified): scIgG was 0 ng/µL.
Protein B14 has an Enzyme Activity Endpoint Assay (purified): Fab'2 of 562 ng/µL, an Enzyme Activity Endpoint Assay (purified): Fc of 151 ng/µL and an Enzyme Activity Endpoint Assay (purified): IgG of 0 ng/µL. The Enzyme Activity Endpoint Assay (purified): scIgG was 26 ng/µL.
